This passage reports Reading results from patent US20240270860A1.

The experiment addresses T1, S03933.
T1 chain: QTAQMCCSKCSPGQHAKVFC
In words: linear peptide ELISA; Affinity +. Particulars: remark: other sources report otherwise. Background: An ELISA detects its analyte on a solid surface through an enzyme-linked reagent.

B1: antagonistic TNFR2 antibody TNFRAB1 (antibody, V domains shown)
VH: EVQLQESGGGLVKPGGSLKLSCAASGFTFSSYVMSWVRQTPEKRLEWVATISSGGSYTYYPDSVKGRFTISRDNAKNTLYLQMSSLRSEDTAMYYCARQRVDGYSSYWYFDVWGAGTAVTVSS
VL: DIVLTQSPAIMSASPGEKVTITCSASSSVYYMYWFQQKPGTSPKLWIYSTSNLASGVPVRFSGSGSGTSYSLTISRMEAEDAATYYCQQRRNYPYTFGGGTKLEIKRA
In the case of B1, the Reading stood at 0.1.
